T1: Porcine liver acylpeptide hydrolase (porcine, UniProt P19205 1-732)
T1 sequence (looked up): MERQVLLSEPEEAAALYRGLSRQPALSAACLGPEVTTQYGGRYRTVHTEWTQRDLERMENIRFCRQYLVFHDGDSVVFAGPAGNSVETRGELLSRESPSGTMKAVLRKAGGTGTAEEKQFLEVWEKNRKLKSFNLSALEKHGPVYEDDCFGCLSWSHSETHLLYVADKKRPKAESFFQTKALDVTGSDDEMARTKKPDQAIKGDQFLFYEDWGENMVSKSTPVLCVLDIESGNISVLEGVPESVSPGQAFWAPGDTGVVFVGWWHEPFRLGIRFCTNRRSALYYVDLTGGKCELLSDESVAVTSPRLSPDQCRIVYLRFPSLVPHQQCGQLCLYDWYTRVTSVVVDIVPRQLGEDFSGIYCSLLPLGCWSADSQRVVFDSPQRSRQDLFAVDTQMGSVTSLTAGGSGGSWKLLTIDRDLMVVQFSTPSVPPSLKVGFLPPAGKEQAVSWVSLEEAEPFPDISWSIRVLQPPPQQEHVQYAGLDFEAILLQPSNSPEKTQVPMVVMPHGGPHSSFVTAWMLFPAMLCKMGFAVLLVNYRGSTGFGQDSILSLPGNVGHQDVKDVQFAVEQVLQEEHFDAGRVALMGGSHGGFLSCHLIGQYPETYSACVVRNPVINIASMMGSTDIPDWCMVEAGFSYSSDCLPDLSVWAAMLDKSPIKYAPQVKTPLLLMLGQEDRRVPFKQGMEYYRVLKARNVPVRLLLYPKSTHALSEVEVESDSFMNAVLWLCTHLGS


Columns and labels:
[1] = molecular target: T1, Porcine liver acylpeptide hydrolase; test: cell-based or functional assay
Bovine α-chymotrypsin = Bovine α-chymotrypsin (bovine); test: cell-based or functional assay
[2] = molecular target: T1, Porcine liver acylpeptide hydrolase; test: enzyme inhibition kinetics (Lineweaver-Burk); porcine APEH (0.5 nM in the legend; 3-5 nM in the methods) pre-incubated with 100 or 150 µM SsCEI 4 for 30 min at 37°C, 50 mM Tris-HCl pH 7.5, substrate acetyl-Ala-pNA; competitive inhibition; conditions: both partners purified

Binder | IC50 of inhibition of porcine APEH activity (substrate Ac-Ala-pNA) [1] | IC50 of inhibition of bovine α-chymotrypsin activity (Bovine α-chymotrypsin) | Ki [2]
H-TILLEIKNINAD-NH2 [SsCEI 2] | 142 µM | 21.9 µM | –
H-TILAEIKNINAD-NH2 (As SsCEI 2 with Ala at P1; also called S4; source: synthetic peptide (solid-phase Fmoc/tBu synthesis, purified by reverse-phase HPLC)) [SsCEI 4] | 84 µM | – | 4 µM

Source: publication PMC3189933, “Acylpeptide Hydrolase Inhibition as Targeted Strategy to Induce Proteasomal Down-Regulation” (PLoS ONE, 2011)
